Laboratory results from patent US20180214548A1 (SHANGHAI YUNYI HEALTHCARE AND TECHNOLOGY, published 2018).

T1: ICOS (human, UniProt Q9Y6W8 21-140, limits assumed)
T1 sequence (looked up): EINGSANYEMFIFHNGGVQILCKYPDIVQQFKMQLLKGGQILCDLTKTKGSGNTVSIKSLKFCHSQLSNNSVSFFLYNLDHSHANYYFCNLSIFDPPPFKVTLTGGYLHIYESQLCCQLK

T2: CTLA4 (human, UniProt P16410 37-162, limits assumed)
T2 sequence (looked up): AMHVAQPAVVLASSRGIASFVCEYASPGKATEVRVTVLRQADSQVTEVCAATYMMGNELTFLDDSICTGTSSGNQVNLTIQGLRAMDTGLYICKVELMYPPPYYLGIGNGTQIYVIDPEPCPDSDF

T3: B7.1 (human, UniProt P33681 35-242)
T3 sequence (looked up): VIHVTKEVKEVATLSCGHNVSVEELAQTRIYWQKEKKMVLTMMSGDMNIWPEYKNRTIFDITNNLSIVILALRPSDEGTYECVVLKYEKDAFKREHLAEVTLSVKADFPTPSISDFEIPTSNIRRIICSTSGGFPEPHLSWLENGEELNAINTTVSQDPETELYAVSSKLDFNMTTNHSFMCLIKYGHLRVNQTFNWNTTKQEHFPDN

T4: ICOS (human, UniProt Q9Y6W8 21-140, limits assumed)
T4 sequence (looked up): T1 sequence (looked up)

T5: CTLA4 (human, UniProt P16410 37-162, limits assumed)
T5 sequence (looked up): T2 sequence (looked up)

T6: B7-1 (human, UniProt P33681 35-242)
T6 sequence (looked up): T3 sequence (looked up)

B1: fully human anti-PD-1 antibody 223G6B5 (antibody, human IgG4, V domains shown)
VH: QVQLQESGPGLVKPSETLSLTCAVSGHSIRGSYFWGWIRQPPGRGLEWIGSIYHSGSTYTNPSLKSRATISVDTSKNQFSLKLNSVTAADTAVYYCARDLDIATTRDYWGQGTLVTVSS
VL: DIQLTQSPSFLSASVGDRVTIICRASQGINNYLAWYQQKPGKAPKLLIYAASTLQSGVPSRFSGSGSGTEFTLTISSLQPEDFATYYCQQLDSYPRTFGQGTKVEIKR
B2: fully human anti-PD-1 antibody 223G6B5 (antibody, human IgG4, V domains shown)
VH: B1 VH
VL: B1 VL
notes: also called 223G6B5 (fully human, IgG4 S228P / kappa)
B3: fully human anti-PD-1 antibody 21G8F11 (antibody, human IgG4 S228P, kappa, V domains shown)
VH: EVQLLESGGGLAQPGGSLRLSCAASGFSFNTYLMHWVRQAPGKGLEWVSAISGGGGNTYYADSVKGRFTISRDNSKNTLYLQMNSLRAEDTAVYYCAKENRIPVAPFDYWGQGTLVTVSS
VL: DIQMTQSPSTLSASVGDRVTITCRASQSISTWLAWYQQKPGKAPKLLIYKASSLESGVPSRFSGSGSGTEFTLTISSLQPDDLATYYCQQYNSFSWTFGQGTKVEIKR
B4: fully human anti-PD-1 antibody 76G5B3 (antibody, human IgG4 S228P, kappa, V domains shown)
VH: QVQLVESGGGVVQPGRSLRLSCAASGFTFSDYGFHWVRQAPGKGLEWVAVIWYDGSNEYYTDSVKGRFTISRDNSKNTLYLQMNSLRAEDTAMYFCVVNPFDYWGQGTLVTVSS
VL: DIQMTQSPSSLSAFVGDRVTITCRASQGINHYLAWYQQKPGKAPNLLILAASTLLSGVPSRFGGRGSGTDFTLIISSLQPEDVATYYCQKYDSAPYTFGQGTKLEIKR
B5: fully human anti-PD-1 antibody 76G5B3 (antibody, human IgG4 S228P, kappa, V domains shown)
VH: B4 VH
VL: B4 VL
notes: also called 76G5B3 (fully human, IgG4 S228P / kappa)

Tests used:
ICOS [1] = target: T1, ICOS; assay: ELISA, coated protein, antibody concentration not given
CTLA4 [2] = target: T2, CTLA4; assay: as above
CD28 [3] = target: CD28 (human, UniProt P10747 19-152); assay: as above
Target sequence in this assay (P10747 19-152 limits assumed): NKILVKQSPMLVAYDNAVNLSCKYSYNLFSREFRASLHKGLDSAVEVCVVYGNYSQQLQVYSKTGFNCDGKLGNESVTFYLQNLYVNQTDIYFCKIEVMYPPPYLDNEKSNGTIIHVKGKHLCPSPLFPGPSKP

B7.1 = target: T3, B7.1; assay: as above
[4] = target: T7, cyno monkey PD-1^ECD-hFc protein (cyno monkey, UniProt B0LAJ3 25-167); assay: ELISA, coated cyno PD-1ECD-hFc
T7 construct: also called cyno PD-1^ECD-hFc; not shown: human IgG Fc fragment (hFc) and its junction to the ECD
T7 sequence (B0LAJ3 entry or part of it limits assumed): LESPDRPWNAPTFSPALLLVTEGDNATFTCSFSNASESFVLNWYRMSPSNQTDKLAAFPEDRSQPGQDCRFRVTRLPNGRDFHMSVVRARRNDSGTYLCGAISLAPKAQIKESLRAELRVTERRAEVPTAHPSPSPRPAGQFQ

ICOS [5] = target: T4, ICOS; assay: ELISA on coated protein (Table 22)
CD28 [6] = target: CD28 (human, UniProt P10747 19-152); assay: ELISA on coated protein (Table 22)
Target sequence in this assay (P10747 19-152 limits assumed): as the sequence (P10747 19-152 limits assumed) above

CTLA4 [7] = target: T5, CTLA4; assay: ELISA on coated protein (Table 22)
B7-1 = target: T6, B7-1; assay: ELISA on coated protein (Table 22)
NC-Fc = target: T8, NC-Fc; assay: ELISA, coated protein, antibody concentration not given
T8 construct: seemingly a negative control Fc protein

[8] = target: T9, human PD-1^ECD-hFc protein (Immunogen A) (human, UniProt Q15116 25-167); assay: as above
T9 construct: also called PD-1-hFc; hPD-1^ECD-hFc; not shown: human IgG Fc fragment (hFc)
T9 sequence (Q15116 25-167): as the sequence (B0LAJ3 entry or part of it limits assumed) above, with E2D, A10P, L19V, A35T, R75Q counted along it

[9] = target: T9, human PD-1^ECD-hFc protein (Immunogen A); assay: ELISA, coated human PD-1ECD-hFc
[10] = target: T10, human PD-1, full length, on cells (human, UniProt Q15116 25-288); assay: flow cytometry on CHO-K1-hPD-1 cells
T10 construct: whole, on cells; in the lymphocyte assays the natural PD-1 of human T cells/PBMCs; also called hPD-1; CHO-K1-hPD-1
T10 sequence (Q15116 25-288): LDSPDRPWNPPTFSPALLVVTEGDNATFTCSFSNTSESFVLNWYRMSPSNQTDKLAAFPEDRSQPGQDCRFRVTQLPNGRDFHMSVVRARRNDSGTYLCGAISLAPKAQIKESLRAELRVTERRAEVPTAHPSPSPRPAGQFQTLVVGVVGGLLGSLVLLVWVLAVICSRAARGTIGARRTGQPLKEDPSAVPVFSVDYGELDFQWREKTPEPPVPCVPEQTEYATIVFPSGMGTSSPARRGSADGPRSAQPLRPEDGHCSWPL

[11] = target: T11, His-tagged human PD-1 ECD protein (human, UniProt Q15116 25-167); assay: SPR Biacore T200, antibody captured by anti-human Fc, His-tagged hPD-1 ECD as analyte
T11 construct: also called His-tagged hPD-1 ECD; His-tagged PD-1^ECD; not shown: His tag
T11 sequence (Q15116 25-167): as the sequence (B0LAJ3 entry or part of it limits assumed) above, with E2D, A10P, L19V, A35T, R75Q counted along it
Description: Anti-human Fc IgG was immobilized on flow cells 1 and 2: HBS-EP+(10 mM HEPES, 150 mM NaCl, 3 mM EDTA, 0.05% P20, pH 7.4) was used as running buffer, and the immobilization of anti-human Fc IgG was carried out using the immobilization wizard template. Flow cells 1 and 2 of a Series S CM5 sensor chip were activated with freshly-mixed 50 mmol/L NHS and 200 mmol/L EDC. 20 ug/mL of anti-human Fc IgG diluted in 10 mM NaAC (pH 4.5) was injected into the activated flow cells 1 and 2. The remaining active coupling sites were blocked with 1M ethanolamine.
Recombinant His-tagged hPD-1 ECD protein was diluted to 50 nM, followed by four 2-fold serial dilutions with HBS-EP+ buffer. […] KD measurements were carried out with HBS-EP+ as the running buffer. Each antibody was injected over the CM5 sensor flow cell 2 with a flow rate of 10 uL/min to reach response 230 RU. Prepared His-tagged hPD-1 ECD protein was then injected over flow cells 1 and 2, at a flow rate of 30 uL/min for 180 sec. Buffer flow was maintained for 400 seconds for dissociation measurements (30 uL/min). To remove the tested antibody from the surface, 10 mM glycine-HCl pH 1.5 was injected for 20 seconds (30 uL/min). Flow cell 1 was used as reference flow cell. The above steps were repeated for each concentration of serially-diluted His-tagged PD-1^ECD protein. The KD value for each antibody was evaluated using Biacore T200 evaluation software 1.0, and the data was fit with a 1:1 binding model.

[12] = target: T10, human PD-1, full length, on cells; assay: flow cytometry on activated human PBMCs (MFI)
[13] = target: T12, full length human PD-1 on cells (human, UniProt Q15116 25-288); assay: cell-based receptor ligand blocking assay (fully human antibodies), blocked ligand PD-L1
T12 construct: Also used here for PD-1 on human T cells/PBMC; also called CHO-K1-hPD-1; hPD-1
T12 sequence (Q15116 25-288 limits assumed): as the sequence (Q15116 25-288) above

[14] = target: T13, human PD-1^ECD-hFc protein (Immunogen A) (human, UniProt Q15116 25-167); assay: protein-based receptor ligand blocking assay (fully human antibodies), blocked ligand PD-L2
T13 construct: Biotinylated for the Octet assay; also called PD-1-hFc; hPD-1^ECD-hFc; not shown: human IgG Fc fragment (hFc)
T13 sequence (Q15116 25-167): as the sequence (B0LAJ3 entry or part of it limits assumed) above, with E2D, A10P, L19V, A35T, R75Q counted along it

[15] = target: T13, human PD-1^ECD-hFc protein (Immunogen A); assay: protein-based receptor ligand blocking assay (fully human antibodies), blocked ligand PD-L1
Description: Purified PD-1^ECD-hFc (Example 2) was diluted with PBS to a final concentration of 1.0 ug/mL, and 100 uL diluted PD-1^ECD-hFc were added to each well of a 96-well plate that was then sealed with plastic film and incubated at 4° C. overnight. The plate was washed twice with wash buffer (PBS+0.01% (v/v) Tween 20) and incubated with blocking buffer (PBS+[…]) at room temperature for 2 hours. The blocking buffer was aspirated, and 50 uL purified anti-PD-1 antibodies from Example 2 were added to each well of 96-well plate. […] The plate was washed three times with wash buffer (PBS+0.01% (v/v) Tween 20). 100 uL HRP-conjugated streptavidin (Sigma) were then added to each well and incubated at 37° C. for 2 hours. The plate was then washed three times with wash buffer, and 100 uL TMB substrate were added to each well. After 30 minutes of incubation at room temperature, the reaction was stopped by adding 100 uL stop solution (0.1N HCl). The absorbance at OD450 nm was measured with an ELISA plate reader (384plus SpectraMax, Molecular Devices).

OD450 nm (ICOS [1])	OD450 nm (CTLA4 [2])	OD450 nm (CD28 [3])	OD450 nm (B7.1)	OD450 nm at 0 nM [4]	OD450 nm at 0.001 nM [4]	OD450 nm at 0.01 nM [4]	OD450 nm at 0.1 nM [4]	OD450 nm at 1 nM [4]	OD450 nm at 100 nM [4]	binding result (ICOS [5])	binding result (CD28 [6])	binding result (CTLA4 [7])	binding result (B7-1)	OD450 nm (NC-Fc)	OD450 nm [8]	OD450 nm at 0 nM [9]	OD450 nm at 0.0001 nM [9]	OD450 nm at 0.001 nM [9]	OD450 nm at 0.01 nM [9]	also measured	Binder
0.12 OD450	0.13 OD450	0.05 OD450	0.25 OD450	0.31 OD450	0.33 OD450	0.83 OD450	2.5 OD450	2.88 OD450	2.85 OD450												B1
										no binding	no binding	no binding	no binding								B2
0.16 OD450	0.09 OD450	0.27 OD450	0.25 OD450	0.19 OD450	0.22 OD450	0.51 OD450	2.39 OD450	2.99 OD450	3 OD450					0.21 OD450	2.7 OD450	0.18 OD450	0.16 OD450	0.26 OD450	0.58 OD450	OD450 nm at 0.1 nM [9]: 2.62 OD450; OD450 nm at 1 nM [9]: 3.03 OD450; OD450 nm at 10 nM [9]: 3.02 OD450; OD450 nm at 100 nM [9]: 3.03 OD450; OD450 nm at 0.0001 nM [4]: 0.15 OD450; OD450 nm at 10 nM [4]: 3.02 OD450; MFI at 0 nM [10]: 48.8 MFI; MFI at 0.01 nM [10]: 1020 MFI	B3
0.38 OD450	0.32 OD450	0.1 OD450	0.37 OD450	0.06 OD450	0.08 OD450	0.2 OD450	1.06 OD450	2.32 OD450	2.45 OD450					0.41 OD450	3.01 OD450	0.09 OD450	0.1 OD450	0.12 OD450	0.28 OD450	Kd [11]: 0.936 nM; koff [11]: 9.35e-05 s⁻¹; kon [11]: 100000 M⁻¹ s⁻¹; EC50 (read off the curve) [12]: ~0.2 nM; OD450 nm at 0.1 nM [9]: 1.34 OD450; OD450 nm at 1 nM [9]: 2.47 OD450; OD450 nm at 10 nM [9]: 2.44 OD450; OD450 nm at 100 nM [9]: 2.58 OD450; OD450 nm at 0.0001 nM [4]: 0.06 OD450; OD450 nm at 10 nM [4]: 2.41 OD450; MFI at 0 nM [10]: 4.1 MFI; MFI at 0.01 nM [10]: 22.9 MFI	B4
										no binding	no binding	no binding	no binding							IC50 (read off the curve) [13]: ~0.3 µg/mL; IC50 (read off the curve) [14]: ~8 nM; IC50 (read off the curve) [15]: ~2 nM	B5
